One assay addresses GST (27 kDa GST protein). Nature of the assay: SEC; Superdex 200 10/300 GL pre-equilibrated with L buffer (40 mM Tris-base, 200 mM NaCl, 1 mM EDTA, 5% glycerol, 5 mM DTT, pH 8.0); eluate of the GST affinity column loaded; molecular weights of the peaks estimated from the column manufacturer's instructions; peaks analysed by SDS-PAGE.
Assay [1] addresses GST-tagged VirB9-1 (not stated | Anaplasma marginale). The description is as above.

A word on the stoichiometry N: it is the number of molecules, sites or subunits per partner or assembly. Turning to “GST (27 kDa GST protein) (natural protein)”, the stoichiometry N with GST (27 kDa GST protein) is 2. GST-tagged VirB9-1: the stoichiometry N in assay [1] was 2.

(Values after PMC4846087.)
